Assay results: US20240132578A1

Key:
[1] = biological target: HIV-1 93UG077 Env (HIV-1); experiment: cell-based or functional assay
HIV-1 APV17 Env (HIV-1) = experiment: cell-based or functional assay
[2] = biological target: HIV-1 JR-CSF Env N332A (HIV-1 isolate JR-CSF) (UniProt P20871); experiment: cell-based or functional assay
[3] = biological target: HIV-1 JR-CSF Env N355A (HIV-1 isolate JR-CSF) (UniProt P20871); experiment: cell-based or functional assay
[4] = biological target: HIV-1 JR-CSF Env Q337A (HIV-1 isolate JR-CSF) (UniProt P20871); experiment: cell-based or functional assay
HIV-1 JRFL Env (HIV-1) = experiment: cell-based or functional assay
[5] = biological target: HIV-1 envelope glycoprotein (Env) of isolate 92WR026, subtype A (HIV-1); experiment: cell-based or functional assay
[6] = biological target: HIV-1 envelope glycoprotein (Env) of isolate 94UG103 (HIV-1); experiment: cell-based or functional assay
[7] = biological target: HIV-1 envelope glycoprotein (Env) of isolate MG RM-A-002, subtype A (HIV-1); experiment: cell-based or functional assay
[8] = biological target: HIV-1 envelope glycoprotein (Env) of isolate MGRM-Chronic-B-010, on pseudovirus (HIV-1); experiment: cell-based or functional assay
[9] = biological target: HIV-1 JR-CSF Env F317A (HIV-1 (isolate JR-CSF, clade B)) (UniProt P20871); experiment: cell-based or functional assay
[10] = biological target: HIV-1 JR-CSF Env I309A (HIV-1 (isolate JR-CSF, clade B)) (UniProt P20871); experiment: cell-based or functional assay
[11] = biological target: HIV-1 JR-CSF Env N295A (HIV-1 (isolate JR-CSF, clade B)) (UniProt P20871); experiment: cell-based or functional assay
[12] = biological target: JR-FL GP120 ΔV3 (HIV-1 JR-FL); experiment: ELISA, antigen-coated wells, mAb titrated; EC50 by nonlinear regression
[13] = biological target: HIV-1 92TH021 envelope glycoprotein (Env) on pseudovirus (HIV-1); experiment: cell-based or functional assay
[14] = biological target: HIV-1 92UG005 envelope glycoprotein (Env) on pseudovirus (HIV-1); experiment: cell-based or functional assay
[15] = biological target: HIV-1 93IN905 envelope glycoprotein (Env) on pseudovirus (HIV-1); experiment: cell-based or functional assay
[16] = biological target: HIV-1 93UG077 envelope glycoprotein (Env) on pseudovirus (HIV-1); experiment: cell-based or functional assay
[17] = biological target: HIV-1 94UG103 envelope glycoprotein (Env) on pseudovirus (HIV-1); experiment: cell-based or functional assay
[18] = biological target: HIV-1 CMU02 envelope glycoprotein (Env) on pseudovirus (HIV-1); experiment: cell-based or functional assay
[19] = biological target: HIV-1 JRCSF envelope glycoprotein (Env) on pseudovirus (HIV-1) (UniProt P20871); experiment: cell-based or functional assay
[20] = biological target: HIV-1 JRFL envelope glycoprotein (Env) on pseudovirus (HIV-1); experiment: cell-based or functional assay
[21] = biological target: HIV-1 MGRM-AG-005 envelope glycoprotein (Env) on pseudovirus (HIV-1); experiment: cell-based or functional assay
[22] = biological target: HIV-1 MGRM-C-026 envelope glycoprotein (Env) on pseudovirus (HIV-1); experiment: cell-based or functional assay
[23] = biological target: HIV-1 MGRM-C-027 envelope glycoprotein (Env) on pseudovirus (HIV-1); experiment: cell-based or functional assay
[24] = biological target: HIV-1 MGRM-D-018 envelope glycoprotein (Env) on pseudovirus (HIV-1); experiment: cell-based or functional assay
[25] = biological target: aMLV envelope protein on pseudovirus (negative control virus); experiment: cell-based or functional assay
[26] = biological target: HIV-1 Env of isolate 92UG005 (Clade D) (HIV-1); experiment: cell-based or functional assay
[27] = biological target: HIV-1 Env of isolate 92UG024 (Clade D) (HIV-1); experiment: cell-based or functional assay
[28] = biological target: HIV-1 Env of isolate 93UG077 (Clade A) (HIV-1); experiment: cell-based or functional assay
[29] = biological target: HIV-1 Env of isolate CMU02 (CRF01_AE) (HIV-1); experiment: cell-based or functional assay
[30] = biological target: HIV-1 Env of isolate IAVI-C18 (Clade C) (HIV-1); experiment: cell-based or functional assay
[31] = biological target: aMLV envelope (negative control); experiment: cell-based or functional assay

Chain of PGT-143 (4980_N08) (antibody) (VH): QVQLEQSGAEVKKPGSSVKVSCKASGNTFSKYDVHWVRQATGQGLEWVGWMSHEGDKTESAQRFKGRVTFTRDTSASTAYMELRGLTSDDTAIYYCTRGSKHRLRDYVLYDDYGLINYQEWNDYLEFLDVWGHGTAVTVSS
Chain of PGT-143 (4980_N08) (antibody) (VL): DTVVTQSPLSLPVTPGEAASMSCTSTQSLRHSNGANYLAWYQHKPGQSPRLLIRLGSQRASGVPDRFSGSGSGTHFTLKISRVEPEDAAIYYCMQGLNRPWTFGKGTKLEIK
Chain of PGT-142 (4995_E20) (antibody) (VH): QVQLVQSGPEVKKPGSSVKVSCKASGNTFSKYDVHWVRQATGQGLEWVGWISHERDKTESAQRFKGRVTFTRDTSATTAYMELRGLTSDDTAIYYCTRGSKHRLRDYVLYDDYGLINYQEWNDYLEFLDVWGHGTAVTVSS
Chain of PGT-142 (4995_E20) (antibody) (VL): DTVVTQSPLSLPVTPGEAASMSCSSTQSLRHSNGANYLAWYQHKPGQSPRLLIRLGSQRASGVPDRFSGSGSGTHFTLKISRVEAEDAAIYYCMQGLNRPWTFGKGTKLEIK
Chain of PGT-141 (4964_G22; 4993_K13) (antibody) (VH): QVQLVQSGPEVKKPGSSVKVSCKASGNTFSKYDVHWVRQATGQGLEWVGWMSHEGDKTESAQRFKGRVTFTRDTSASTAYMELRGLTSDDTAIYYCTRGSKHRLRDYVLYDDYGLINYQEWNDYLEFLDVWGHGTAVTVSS
Chain of PGT-144 (4970_K22) (antibody) (VH): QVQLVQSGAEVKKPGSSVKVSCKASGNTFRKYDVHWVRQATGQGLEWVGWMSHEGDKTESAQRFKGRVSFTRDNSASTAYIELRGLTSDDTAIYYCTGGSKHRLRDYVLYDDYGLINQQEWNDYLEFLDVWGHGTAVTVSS
Chain of PGT-144 (4970_K22) (antibody) (VL): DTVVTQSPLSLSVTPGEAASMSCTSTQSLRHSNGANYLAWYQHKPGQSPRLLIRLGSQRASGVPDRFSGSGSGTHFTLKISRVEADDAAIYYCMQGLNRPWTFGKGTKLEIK
Chain of 5329_C19 (PGT-136) (antibody) (VH): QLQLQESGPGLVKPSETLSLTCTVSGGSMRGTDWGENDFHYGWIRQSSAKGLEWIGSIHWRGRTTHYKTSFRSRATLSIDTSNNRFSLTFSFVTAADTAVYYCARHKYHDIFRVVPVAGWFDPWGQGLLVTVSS
Chain of 5329_C19 (PGT-136) (antibody) (VL): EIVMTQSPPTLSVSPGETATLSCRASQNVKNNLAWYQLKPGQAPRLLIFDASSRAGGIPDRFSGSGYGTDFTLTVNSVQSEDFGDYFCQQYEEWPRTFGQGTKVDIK
Chain of 5345_I01 (PGT-137) (antibody) (VH): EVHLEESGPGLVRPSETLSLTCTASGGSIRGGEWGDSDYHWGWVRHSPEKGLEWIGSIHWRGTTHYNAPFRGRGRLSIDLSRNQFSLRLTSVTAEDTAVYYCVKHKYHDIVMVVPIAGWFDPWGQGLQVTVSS
Chain of 5345_I01 (PGT-137) (antibody) (VL): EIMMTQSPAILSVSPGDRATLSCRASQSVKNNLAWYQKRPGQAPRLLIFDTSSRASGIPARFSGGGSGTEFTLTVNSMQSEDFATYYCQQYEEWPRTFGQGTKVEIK

Substance | IC50, pseudovirus neutralization [13] [ng/mL] | IC50, pseudovirus neutralization [14] [µg/mL] | IC50, pseudovirus neutralization [15] [ng/mL] | IC50, pseudovirus neutralization [16] [µg/mL] | IC50, pseudovirus neutralization [17] [µg/mL] | IC50, pseudovirus neutralization [18] [µg/mL] | IC50, pseudovirus neutralization [19] [ng/mL] | IC50, pseudovirus neutralization [20] [µg/mL] | IC50, pseudovirus neutralization [21] [µg/mL] | IC50, pseudovirus neutralization [22] [µg/mL] | IC50, pseudovirus neutralization [23] [µg/mL] | IC50, pseudovirus neutralization [24] [µg/mL] | IC50, pseudovirus neutralization [25] [µg/mL] | further results
5141_B17 (PGT-126) (antibody) | – | – | – | – | – | – | – | – | – | – | – | – | – | IC50, pseudovirus neutralization [1]: 0.0256 µg/mL; IC50, pseudovirus neutralization (HIV-1 APV17 Env (HIV-1)): 0.501 µg/mL; Fold IC50 increase relative to wild-type [2]: 181 fold; Fold IC50 increase relative to wild-type [3]: 0.2 fold; Fold IC50 increase relative to wild-type [4]: 0.4 fold; IC50, pseudovirus neutralization (HIV-1 JRFL Env (HIV-1)): 0.014 µg/mL; IC50, pseudovirus neutralization [5]: 8 ng/mL; Neutralization IC80 [6]: 0.0316 µg/mL; Neutralization IC90 [6]: 0.0655 µg/mL; Neutralization IC95 [6]: 0.128 µg/mL; neutralization IC50 [6]: 9.1 ng/mL; IC50, pseudovirus neutralization [7]: 0.015 µg/mL; IC50, pseudovirus neutralization [8]: 5 ng/mL
5147_N06 (PGT-130) (antibody) | – | – | – | – | – | – | – | – | – | – | – | – | – | IC50, pseudovirus neutralization [1]: > 10 µg/mL; IC50, pseudovirus neutralization (HIV-1 APV17 Env (HIV-1)): > 10 µg/mL; Fold IC50 increase relative to wild-type [9]: 17 fold; Fold IC50 increase relative to wild-type [10]: > 77.9 fold; Fold IC50 increase relative to wild-type [11]: 0.7 fold; IC50, pseudovirus neutralization (HIV-1 JRFL Env (HIV-1)): 0.0346 µg/mL
5329_C19 (PGT-136) (antibody) | – | – | – | – | – | – | – | – | – | – | – | – | – | EC50 [12]: 0.1 µg/mL
5345_I01 (PGT-137) (antibody) | – | – | – | – | – | – | – | – | – | – | – | – | – | EC50 [12]: 0.1 µg/mL
PGT-141 (4964_G22; 4993_K13) (antibody) | 1.9 | > 10 | 1.6 | > 10 | > 10 | > 10 | 4.7 | > 10 | 0.392 | > 10 | 0.822 | > 10 | > 10 | –
PGT-142 (4995_E20) (antibody) | 2.2 | > 10 | 1.7 | > 10 | > 10 | > 10 | 8.5 | > 10 | 0.22 | > 10 | 0.272 | > 10 | > 10 | –
PGT-143 (4980_N08) (antibody) | 2.8 | > 10 | 2.1 | > 10 | > 10 | > 10 | 6.4 | > 10 | 0.244 | > 10 | 0.505 | > 10 | > 10 | –
PGT-144 (4970_K22) (antibody) | 93.4 | > 10 | 158 | > 10 | > 10 | > 10 | 128 | > 10 | > 10 | > 10 | > 10 | > 10 | > 10 | –
PGV04 (antibody) | – | – | – | – | – | – | – | – | – | – | – | – | – | IC50 [6]: 0.202 µg/mL
b12 (antibody) | – | – | – | – | – | – | – | – | – | – | – | – | – | IC90 (neutralization of pseudovirus) [26]: > 50 µg/mL; IC90 (neutralization of pseudovirus) [27]: > 50 µg/mL; IC90 (neutralization of pseudovirus) [28]: > 50 µg/mL; IC90 (neutralization of pseudovirus) [29]: 34.2 µg/mL; IC90 (neutralization of pseudovirus) [30]: > 50 µg/mL; IC90 (neutralization of pseudovirus) [31]: > 50 µg/mL
